This is an account of results in the DeepSol protein solubility set.

The series is described as follows: soluble on expression in E. coli; label from the status in PepcDB or PDB records.
With “MGSDKIHHHHHHMIRLDNISKQNGHQILFIEASMGVQKGEKVGLVGPNGAGKTTLFRMITGQEQPDDGIVSIDAGMRIGYFSQDVGEMSGQSAVAAVMDGVGPVSALAAEMATLEAAMVDPDQADQLDAVMERYGEVLERFQELDGYALEARAREVLAGLSFSQERMDADVGLLSGGWKMRVALARILLMRPDGMLLDEPSNHLDLESLIWLESFLKNYDGALLMTSHDRAFMNRIIGKVIEIDAGSLITYSGDLDFYDQQRALSEAQRQAQYERQQAMLAKEIKFIEKFKARASHAAQVQSRVKKLDKIERVEAPRRRQTVQFEFQSPPRSGEDVISLRGVHKGYGERPIYQDLDFLVRRKERWAVLGANGAGKSTLLKLVAGDTKPDQGVVNIGASVKMGYFAQHSMDLLDGEETIFESLERSFPQAGQGALRTLAGCFGFSGDDVEKPCRVLSGGEKARLVMAKMLFDPPNLLVLDEPTNHLDMVTKEMLVASLADFEGTMLFVSHDRHFLAALSNRVLELTPEGIHQYGGGYTEYVARTGQEAPGLHPGG”, the “soluble on expression in E. coli” value is “not soluble”.
For “MSTENAHLQKEDIVIESWLHKKGEHIRNWRPRYFILFRDGTLLGFRSKPKEDQPLPEPLNNFMIRDAATVCLDKPRPNMFIVRCLQWTTVIERTFYADSADFRQMWIEAIQAVSSHNRLKENAGNTSMQEEDTNGNPSGESDVNMDATSTRSDNDFESTVMNIDEPEEVPRKNTVTMDDFDFLKVLGQGTFGKVILCREKSSDKLYAIKIIRKEMVVDRSEVAHTLTENRVLYACVHPFLTLLKYSFQAQYHICFVMEFANGGELFTHLQRCKTFSEARTRFYGSEIILALGYLHHRNIVYRDMKLENLLLDRDGHIKITDFGLCKEEIKYGDKTSTFCGTPEYLAPEVIEDIDYDRSVDWWGVGVVMYEMMCGRLPFSAKENGKLFELITTCDLKFPNRLSPEAVTLLSGLLERVPAKRLGAGPDDAREVSRAEFFKDVDWEATLRKEVEPPFKPNVMSETDTSFFDRVRYVSILLKVSEAI” the value was “not soluble”; for “MTMLLSIIVPTFKPQKTYFEECLFSLFNQTMFHYLYEVIVVLNGDIDTQYTDMILDIFAYKPAGLYCRLIKTDQAGVSNARNLGIDAAKGQYIGFVDDDDIVSSDYLEELCKISSRNIVGVSNVHTFRKTIEEKEDNFFACRIIQQRECQYSLFRNRAILAFPVAKLIHRDIIGNRRFNPRFKNGEDALFMTEISDLIGGFRFTKEYTTYYVRERAGSASRRPLKRGQLCWDTFMLIKAYVSIYLSSPFSYNFLLFASRIPGSIKGAIKLSRNTAFFLEHHHHHH”, “not soluble”; for “MGSDKIHHHHHHAEDYMETDKGHDTLTLTVNQQEIVLNEKNHTQEALTLSWTTGTNYGSGNRISYTLEIAKAGTDFARAYSVDLGTGTYQWTKKTEELNQFLNTQLGVGYAEKVSLEARITATVAGMEEKEQRATVALDVTTYQPVTPTLYLIGEAAPNGWSADQATPMERTDNGQFTWTGKLNTGVFKFITTLGEFLPSYNRDAAAGEELRLIYRTSGDEPDEPFTVSKEATYIVKVDLLDLTMTMTETENIGWRFEEFYIVGSFTGDNGWGFEALSKDAVQMNLFHYGAVIPWKADGDFKFTSVTDFGQSDAFFHPTEGNAPYTSTSVVLGGEDNKWQMKESECGKAYKVLFLTAKGKEKMLMRPFTPYEGLYLVGDATPNGWSIDNATPMAKSADSPYIFTWSGTLNTGEMKISCDKQSDWNGDWLMADKSGKAPTGEVETALFTSKTDAELKNMYPDTDLGSLDNKWNIQEAGSYRITIDQLKETISIVKQ”, “not soluble”.
With “MSLPMLQVALDNQTMDSAYETTRLIAEEVDIIEVGTILCVGEGVRAVRDLKALYPHKIVLADAKIADAGKILSRMCFEANADWVTVICCADINTAKGALDVAKEFNGDVQIELTGYWTWEQAQQWRDAGIGQVVYARSRDAQAAGVAWGEADITAIKRLSDMGFKVTVTGGLALEDLPLFKGIPIHVFIAGRSIRDAASPVEAARQFKRSIAELWG” the entry was “soluble”.
With “MGSDKIHHHHHHMPLFTEAPKSLCILRLSAVGDVCHALAVVQHIQEYYPQTEMTWIVGKTEMGLLSSIPNITLIPYDKKTGWKGVLSLWKQLKNKQFDALLNMQTAFRASILSLGIKAKFKIGFGEKRSREGQWLFVNRRIRDPFSPHVLDGFMAFAEYIGVPKAEPKWELAISQDDYKFADQFIDFSRKNLLISPCSSKAEKDWLIEGYAEVANIAHQHNINVIFCSSPAKRELEIVEKITALCHFTPTNIAGKTNLKQLTALISKVDLVLSPDSGPAHIATTQGTPVIGLYAYHNPLRTAPYNNLDNVVSVYEENAQKEFGKPSSELPWATKLKGKNLMTEIQVEPVIGQMKKLGLF” the entry was “not soluble”.
